Drawing on paper PMC1888729, this text covers stoichiometry N (U2AF35 per U2AF65) for two molecules.

Test [1] addresses T1, His-tagged U2AF35 (HEK-293E), Q01081.
T1 chain: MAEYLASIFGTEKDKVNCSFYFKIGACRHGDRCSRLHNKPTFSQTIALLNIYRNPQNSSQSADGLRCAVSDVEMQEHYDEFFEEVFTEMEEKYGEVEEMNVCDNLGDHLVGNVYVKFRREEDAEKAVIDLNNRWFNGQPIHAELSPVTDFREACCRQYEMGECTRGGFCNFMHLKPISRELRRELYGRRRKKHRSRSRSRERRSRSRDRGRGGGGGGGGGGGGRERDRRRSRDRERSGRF
Description: pull-down; His-tagged U2AF35 expressed in 293E cells, lysate (50 mM Tris-HCl pH 8, 1% NP-40, 5 mM imidazole) on Ni-NTA agarose 1 h at 4°C, wash 0.5 M NaCl, eluted with 0.5 M imidazole; western blot; amounts by Coomassie stain against BSA. To be noted: remark: other sources report otherwise. Background: In western blotting, separated proteins are transferred to a membrane and probed.

For test [2], the target named is T2, U2AF35 (recombinant human, baculovirus-infected SF9 cells) (human), Q01081.
T2 chain: T1 chain
Briefly: co-purification; human U2AF65/35 heterodimer purified from baculovirus-infected SF9 cells as described previously. The following applies: remark: other sources report otherwise.

B1: U2AF65 (co-purified from HEK-293E), P26368 1-475 (natural protein)
chain: MSDFDEFERQLNENKQERDKENRHRKRSHSRSRSRDRKRRSRSRDRRNRDQRSASRDRRRRSKPLTRGAKEEHGGLIRSPRHEKKKKVRKYWDVPPPGFEHITPMQYKAMQAAGQIPATALLPTMTPDGLAVTPTPVPVVGSQMTRQARRLYVGNIPFGITEEAMMDFFNAQMRLGGLTQAPGNPVLAVQINQDKNFAFLEFRSVDETTQAMAFDGIIFQGQSLKIRRPHDYQPLPGMSENPSVYVPGVVSTVVPDSAHKLFIGGLPNYLNDDQVKELLTSFGPLKAFNLVKDSATGLSKGYAFCEYVDINVTDQAIAGLNGMQLGDKKLLVQRASVGAKNATLVSPPSTINQTPVTLQVPGLMSSQVQMGGHPTEVLCLMNMVLPEELLDDEEYEEIVEDVRDECSKYGLVKSIEIPRPVDGVEVPGCGKIFVEFTSVFDCQKAMQGLTGRKFANRVVVTKYCDPDSYHRRDFW
B1 registered a stoichiometry N (U2AF35 per U2AF65) in test [1] of 3.5.

B2: U2AF65 (recombinant human, baculovirus-infected SF9 cells), P26368 1-475 (natural protein)
chain: B1 chain
Consider B2, for which, in test [2], the stoichiometry N (U2AF35 per U2AF65) was 1.
